Test results taken from paper PMC10448441.

Biological target: T1, Integrin beta3 (CD61, GP3A), overexpressed on A549-ITGB3-OE cells (Homo sapiens) (UniProt P05106)
T1 sequence: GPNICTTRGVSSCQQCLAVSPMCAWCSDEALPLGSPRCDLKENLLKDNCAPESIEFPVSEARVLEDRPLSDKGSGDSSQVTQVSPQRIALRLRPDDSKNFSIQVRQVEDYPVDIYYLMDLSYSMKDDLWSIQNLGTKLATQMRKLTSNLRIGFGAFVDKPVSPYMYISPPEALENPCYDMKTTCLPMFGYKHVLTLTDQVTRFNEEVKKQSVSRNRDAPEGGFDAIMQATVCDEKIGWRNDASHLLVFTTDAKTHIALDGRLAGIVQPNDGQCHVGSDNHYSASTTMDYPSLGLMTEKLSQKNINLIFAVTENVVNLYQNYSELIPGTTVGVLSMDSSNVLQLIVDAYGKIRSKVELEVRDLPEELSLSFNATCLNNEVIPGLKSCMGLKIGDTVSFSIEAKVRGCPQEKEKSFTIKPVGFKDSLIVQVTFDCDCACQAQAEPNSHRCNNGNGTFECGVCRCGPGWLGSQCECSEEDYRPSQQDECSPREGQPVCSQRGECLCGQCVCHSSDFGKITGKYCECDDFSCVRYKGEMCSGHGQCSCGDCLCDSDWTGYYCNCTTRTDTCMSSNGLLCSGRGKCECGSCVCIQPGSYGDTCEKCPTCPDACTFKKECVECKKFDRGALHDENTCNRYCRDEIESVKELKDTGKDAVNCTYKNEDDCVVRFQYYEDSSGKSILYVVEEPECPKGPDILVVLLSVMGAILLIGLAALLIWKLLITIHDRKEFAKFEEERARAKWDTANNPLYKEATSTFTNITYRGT
Test: flow cytometry
Conditions: live A549-ITGB3-OE cells, FAM label; PBS with 5 mM MgCl2, 4.5 g/L glucose, 100 ug/mL tRNA; 4 C, 30 min; pH not stated; pull-down on ice 30 min

Row | Sequence | Kd [nM]
1 | TCCACGATGTAGGATCCACATGAGCGCTCCTGTTACCCTG [S10yh2] | 61.2
2 | TTCAGCACTCCACGCATAGCTCCACGATGTAGGATCCACATGAGCGCTCCTGTTACCCTGCCTATGCGTGCTACCGTGAA [S10] | 71.4
